This note sets out measurements from US20090191228.

For data set [1], the target named is nH5 (non-treated H5 of H5N1 strain A/Vietnam/1203/04, Protein Sciences, NaCl adjusted to 171 mM).
Data set [2] deals with T1, dOVA-2 (ovalbumin misfolded by five heat cycles 30 to 85 C), P01012.
T1 chain: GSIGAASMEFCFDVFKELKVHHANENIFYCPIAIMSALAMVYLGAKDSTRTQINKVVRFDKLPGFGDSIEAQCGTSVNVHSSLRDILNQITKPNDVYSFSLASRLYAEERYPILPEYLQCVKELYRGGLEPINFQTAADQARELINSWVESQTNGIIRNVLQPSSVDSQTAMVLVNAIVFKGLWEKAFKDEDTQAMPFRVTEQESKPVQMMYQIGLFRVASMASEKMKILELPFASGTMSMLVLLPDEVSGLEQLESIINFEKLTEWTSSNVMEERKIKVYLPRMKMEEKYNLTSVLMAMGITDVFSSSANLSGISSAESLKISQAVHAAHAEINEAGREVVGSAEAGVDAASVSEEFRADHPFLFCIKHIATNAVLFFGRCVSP

Data set [3] concerns the target CH5-2 (nH5 of A/VN/1203/04 heat cycled at pH 2).
Data set [4] has as its target T2, dOVA-3 (ovalbumin misfolded by about 16 h at 75 C), P01012.
T2 chain: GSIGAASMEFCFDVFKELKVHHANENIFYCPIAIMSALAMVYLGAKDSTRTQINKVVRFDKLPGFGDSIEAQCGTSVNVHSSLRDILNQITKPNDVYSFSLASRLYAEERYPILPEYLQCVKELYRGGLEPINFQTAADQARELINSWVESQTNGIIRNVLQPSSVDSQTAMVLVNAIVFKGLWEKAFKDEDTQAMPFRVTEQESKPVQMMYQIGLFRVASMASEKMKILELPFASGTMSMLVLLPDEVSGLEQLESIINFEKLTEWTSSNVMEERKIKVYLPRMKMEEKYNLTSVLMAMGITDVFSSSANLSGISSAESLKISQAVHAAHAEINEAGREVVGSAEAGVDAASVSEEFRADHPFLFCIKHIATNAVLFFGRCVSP

In data set [5] the target is CH5-4 (nH5 of A/VN/1203/04 incubated with 100 mM glucose-6-phosphate for 67 h at 80 C).
Data set [6] has as its target T3, nOVA (non-treated ovalbumin, 1 mg/ml in PBS), P01012.
T3 chain: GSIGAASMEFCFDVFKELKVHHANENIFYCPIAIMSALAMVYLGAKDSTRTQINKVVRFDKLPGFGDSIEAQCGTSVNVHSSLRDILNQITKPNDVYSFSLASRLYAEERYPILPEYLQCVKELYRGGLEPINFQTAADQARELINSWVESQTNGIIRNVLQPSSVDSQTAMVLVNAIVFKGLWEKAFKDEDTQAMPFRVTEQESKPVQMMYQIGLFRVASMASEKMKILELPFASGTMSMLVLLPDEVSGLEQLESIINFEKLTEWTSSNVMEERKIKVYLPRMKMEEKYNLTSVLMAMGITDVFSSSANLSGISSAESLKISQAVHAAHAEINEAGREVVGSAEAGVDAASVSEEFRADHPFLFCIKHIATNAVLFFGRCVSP

Data set [7] addresses CH5-3 (nH5 of A/VN/1203/04 heat cycled at pH 12).
Data set [8] has as its target CH5-1 (nH5 of A/VN/1203/04 misfolded by three heat cycles 25-85 C).
Data set [9] has as its target T4, dOVA-1 (ovalbumin misfolded by HCl treatment, 40 min 37 C, neutralized), P01012.
T4 chain: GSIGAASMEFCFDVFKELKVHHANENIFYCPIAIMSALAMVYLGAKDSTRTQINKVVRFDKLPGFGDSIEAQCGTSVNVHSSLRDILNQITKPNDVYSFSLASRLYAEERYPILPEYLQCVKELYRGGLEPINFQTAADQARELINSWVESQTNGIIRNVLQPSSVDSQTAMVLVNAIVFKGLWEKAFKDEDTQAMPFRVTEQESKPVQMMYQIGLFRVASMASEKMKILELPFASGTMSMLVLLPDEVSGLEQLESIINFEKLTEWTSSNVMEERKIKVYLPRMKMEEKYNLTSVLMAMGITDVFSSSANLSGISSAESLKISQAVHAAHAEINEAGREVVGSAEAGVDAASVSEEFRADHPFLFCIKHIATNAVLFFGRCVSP

B1: tissue type plasminogen activator (tPA) (protein)
chain: SYQVICRDEKTQMIYQQHQSWLRPVLRSNRVEYCWCNSGRAQCHSVPVKSCSEPRCFNGGTCQQALYFSDFVCQCPEGFAGKCCEIDTRATCYEDQGISYRGTWSTAESGAECTNWNSSALAQKPYSGRRPDAIRLGLGNHNYCRNPDRDSKPWCYVFKAGKYSSEFCSTPACSEGNSDCYFGNGSAYRGTHSLTESGASCLPWNSMILIGKVYTAQNPSAQALGLGKHNYCRNPDGDAKPWCHVLKNRRLTWEYCDVPSCSTCGLRQYSQPQFRIKGGLFADIASHPWQAAIFAKHRRSPGERFLCGGILISSCWILSAAHCFQERFPPHHLTVILGRTYRVVPGEEEQKFEVEKYIVHKEFDDDTYDNDIALLQLKSDSSRCAQESSVVRTVCLPPADLQLPDWTECELSGYGKHEALSPFYSERLKEAHVRLYPSSRCTSQHLLNRTVTDNMLCAGDTRSGGPQANLHDACQGDSGGPLVCLNDGRMTLVGIISWGLGCGQKDVPGVYTKVTNYLDWIRDNMRP
In the case of B1, the “tPA mediated plasminogen activation assay” value in data set [1] is “nH5 (140% of standard)”; in [3], “CH5-2 (150% of standard)”; in data set [5] it was “CH5-4 (37% of standard)”; in [7] it was “CH5-3 (200% of standard)”; in data set [8] it was “CH5-1 (50% of standard)”. This protein also displayed a tPA activation potency (tPA-mediated plasminogen activation, chromogenic); reference dOVA-2 at 80 ug/mL, column Activation at 10 ug/mL (% of reference) in data set [2] of 100. For the same protein, in [2], the tPA activation potency (tPA-mediated plasminogen activation, chromogenic); reference dOVA-2 at 80 ug/mL, column Activation at 25 ug/mL (% of reference) came to 100. For the same protein, the tPA activation potency, Activation at 10 ug/mL (% of reference) in data set [2] is 107; in data set [4] it was 60.9; in data set [6], 48.8; in data set [9], 97.4. In addition, the tPA activation potency, Activation at 25 ug/mL (% of reference) in data set [2] turned out to be 107; in data set [4], 79; in data set [6] it was 48.1; in [9], 136. For the same protein, the “tPA/Plg activating potential, cross-beta ovalbumin standard at 10 ug/ml” value in data set [2] is “at 10 and 50 ug/ml, tPA/plg activation is 100% and 85%, respectively”. The “tPA/Plg activating potential, cross-beta ovalbumin standard at 30 ug/ml” value in data set [2] is listed as “The activating potential of cross-beta ovalbumin standard at 30 ug/ml is set to 100%”. The “tPA/Plg activating potential, cross-beta ovalbumin standard at 50 ug/ml” value in [2] is “at 10 and 50 ug/ml, tPA/plg activation is 100% and 85%, respectively”.
